Abundance fitness data for 167 variants are collected here from the Human Domainome abundance scans (Beltran et al. 2025).

± gives the uncertainty stated by the source.

B1: Gamma-crystallin C, residues 91 to 170; numbered along this chain, P07315 (parent)
chain: RLYEREDHKGLMMELSEDCPSIQDRFHLSEIRSLHVLEGCWVLYELPNYRGRQYLLRPQEYRRCQDWGAMDAKAGSLRRV

Variants of B1 are the subject of this series. In words: abundance fitness (aPCA) (normalised: wild type 0, dead -1); higher = more abundant; growth selection in yeast, the domain comes from the species named. The settings on record: Homo sapiens.
As to S29T, the abundance fitness is -0.012 ± 0.089.

Regarding S29A, the abundance fitness is -0.161 ± 0.076.

With S29F, the abundance fitness was -0.318 ± 0.11.

In the case of S29L, the abundance fitness is -0.165 ± 0.057.

In the case of S29Y, the abundance fitness is -0.132 ± 0.085.

Regarding S29W, the abundance fitness is -0.113 ± 0.056.

On to S29G, for which the abundance fitness is -0.118 ± 0.069.

Consider S29E, for which the abundance fitness was -0.112 ± 0.097.

For R25K, the abundance fitness was -0.07 ± 0.063.

In the case of R25V, the abundance fitness was -0.025 ± 0.058.

For the variant R25L, the abundance fitness was -0.184 ± 0.085.

With R25D, the abundance fitness is -0.396 ± 0.19.

Regarding R25Y, the abundance fitness is -0.463 ± 0.15.

With R25P, the abundance fitness was -0.736 ± 0.38.

Turning to R25A, the abundance fitness was -0.086 ± 0.062.

On to R25W, for which the abundance fitness is -0.134 ± 0.053.

With R25Q, the abundance fitness was -0.179 ± 0.1.

Turning to R25C, the abundance fitness was -0.339 ± 0.15.

For the variant R25T, the abundance fitness was -0.148 ± 0.089.

Consider R25I, for which the abundance fitness was -0.598 ± 0.3.

Turning to R25S, the abundance fitness is -0.078 ± 0.072.

As to R25G, the abundance fitness was -0.602 ± 0.069.

For I31C, the abundance fitness is -0.833 ± 0.28.

I31D: the abundance fitness is -0.843 ± 0.21.

Consider I31E, for which the abundance fitness was -0.987 ± 0.4.

Consider I31G, for which the abundance fitness is -1.01 ± 0.15.

For I31A, the abundance fitness was -0.611 ± 0.074.

For the variant I31K, the abundance fitness is -1.02 ± 0.49.

For the variant F26S, the abundance fitness is -0.69 ± 0.12.

Turning to F26L, the abundance fitness was -0.343 ± 0.066.

Consider F26R, for which the abundance fitness is -0.886 ± 0.22.

In the case of F26K, the abundance fitness was -0.818 ± 0.31.

Turning to F26M, the abundance fitness is -0.049 ± 0.1.

Turning to F26A, the abundance fitness is -0.564 ± 0.084.

On to F26V, for which the abundance fitness was -0.461 ± 0.058.

On to F26T, for which the abundance fitness is -0.217 ± 0.12.

For the variant F26W, the abundance fitness was -0.007 ± 0.081.

As for F26E, the abundance fitness was -0.923 ± 0.29.

On to F26I, for which the abundance fitness is -0.553 ± 0.41.

As to F26Y, the abundance fitness was -0.461 ± 0.25.

As to F26G, the abundance fitness was -0.406 ± 0.064.

As for F26C, the abundance fitness was -0.317 ± 0.17.

For F26Q, the abundance fitness was -0.787 ± 0.17.

For the variant S16F, the abundance fitness was -0.123 ± 0.084.

For S16T, the abundance fitness was -0.129 ± 0.1.

S16D: the abundance fitness is -0.029 ± 0.088.

On to S16Y, for which the abundance fitness was -0.094 ± 0.14.

As for S16C, the abundance fitness was -0.096 ± 0.07.

S16I: the abundance fitness is -0.102 ± 0.14.

Regarding S16A, the abundance fitness is -0.043 ± 0.075.

Take S16P: the abundance fitness was -0.859 ± 0.23.

For the variant S16M, the abundance fitness was -0.365 ± 0.32.

For the variant S16K, the abundance fitness is -0.135 ± 0.13.

In the case of S16N, the abundance fitness is -0.025 ± 0.15.

On to S16G, for which the abundance fitness was -0.082 ± 0.066.

In the case of S16Q, the abundance fitness is -0.132 ± 0.11.

S16L: the abundance fitness is -0.276 ± 0.063.

Regarding S16R, the abundance fitness is -0.082 ± 0.054.

S16E: the abundance fitness is 0.118 ± 0.089.

Consider P20V, for which the abundance fitness was -0.345 ± 0.06.

Take P20Q: the abundance fitness is -0.442 ± 0.19.

Turning to P20Y, the abundance fitness is -0.996 ± 0.4.

For P20D, the abundance fitness was -0.24 ± 0.19.

Turning to P20S, the abundance fitness was -0.292 ± 0.07.

Regarding P20N, the abundance fitness was -0.152 ± 0.22.

Take P20A: the abundance fitness was -0.025 ± 0.065.

Regarding P20I, the abundance fitness was -0.506 ± 0.23.

For P20H, the abundance fitness was 0.061 ± 0.44.

With P20E, the abundance fitness is -0.11 ± 0.12.

Turning to P20L, the abundance fitness is -0.613 ± 0.091.

In the case of P20T, the abundance fitness was -0.43 ± 0.17.

With P20W, the abundance fitness was -0.503 ± 0.08.

For P20M, the abundance fitness was -0.684 ± 0.39.

For P20G, the abundance fitness is -0.394 ± 0.054.

As for P20C, the abundance fitness was -0.253 ± 0.072.

For the variant P20R, the abundance fitness is -0.44 ± 0.069.

With D18P, the abundance fitness is -0.66 ± 0.29.

Consider D18C, for which the abundance fitness is -0.676 ± 0.25.

Turning to D18Y, the abundance fitness is -0.748 ± 0.36.

D18I: the abundance fitness was -0.758 ± 0.23.

Consider D18K, for which the abundance fitness was -0.934 ± 0.29.

D18E: the abundance fitness is -0.675 ± 0.11.

For the variant D18G, the abundance fitness is -0.936 ± 0.097.

With D18F, the abundance fitness was -0.955 ± 0.24.

As to D18V, the abundance fitness is -1.01 ± 0.17.

For D18S, the abundance fitness was -0.142 ± 0.055.

On to D18Q, for which the abundance fitness was -0.935 ± 0.35.

For the variant D18R, the abundance fitness was -0.938 ± 0.15.

Consider D18W, for which the abundance fitness is -0.997 ± 0.23.

Regarding D18T, the abundance fitness was -0.805 ± 0.17.

With D18A, the abundance fitness was -0.462 ± 0.088.

On to D18L, for which the abundance fitness was -0.956 ± 0.2.

As to D18M, the abundance fitness was -0.496 ± 0.16.

For L28G, the abundance fitness was -0.364 ± 0.061.

Turning to L28F, the abundance fitness was -0.335 ± 0.18.

For L28V, the abundance fitness is -0.035 ± 0.054.

Consider L28R, for which the abundance fitness was -0.05 ± 0.06.

Regarding L28N, the abundance fitness was -0.697 ± 0.23.

In the case of L28T, the abundance fitness was -0.601 ± 0.22.

On to L28H, for which the abundance fitness was -0.448 ± 0.23.

With L28S, the abundance fitness was -0.251 ± 0.072.

Consider L28Y, for which the abundance fitness is -0.252 ± 0.14.

For L28I, the abundance fitness stood at 0.093 ± 0.15.

Consider L28A, for which the abundance fitness is -0.129 ± 0.055.

For L28E, the abundance fitness is -0.451 ± 0.089.

L28W: the abundance fitness worked out at 0.134 ± 0.14.

On to L28Q, for which the abundance fitness was -0.337 ± 0.13.

Turning to L28K, the abundance fitness was -0.022 ± 0.14.

On to L28P, for which the abundance fitness was -0.864 ± 0.14.

Turning to L28M, the abundance fitness is -0.038 ± 0.099.

Turning to D24E, the abundance fitness stood at 0.045 ± 0.073.

As for D24Q, the abundance fitness is -0.213 ± 0.12.

Take D24A: the abundance fitness is -0.008 ± 0.063.

On to D24W, for which the abundance fitness is -0.516 ± 0.088.

For D24S, the abundance fitness was -0.067 ± 0.052.

Consider D24N, for which the abundance fitness was -0.183 ± 0.13.

In the case of D24K, the abundance fitness was -0.256 ± 0.17.

Turning to D24M, the abundance fitness was -0.194 ± 0.11.

D24G: the abundance fitness was -0.167 ± 0.043.

For D24P, the abundance fitness was -0.951 ± 0.5.

In the case of D24V, the abundance fitness is -0.396 ± 0.067.

Consider D24C, for which the abundance fitness is -0.274 ± 0.1.

Turning to D24Y, the abundance fitness was -0.35 ± 0.098.

Take D24T: the abundance fitness is -0.202 ± 0.18.

As to D24H, the abundance fitness is -0.087 ± 0.24.

Turning to D24L, the abundance fitness is -0.31 ± 0.067.

In the case of C19K, the abundance fitness is -0.623 ± 0.2.

Regarding C19P, the abundance fitness was -0.902 ± 0.24.

In the case of C19T, the abundance fitness was -0.535 ± 0.036.

With C19F, the abundance fitness was -0.969 ± 0.41.

As to C19W, the abundance fitness was -0.807 ± 0.14.

On to C19S, for which the abundance fitness is -0.92 ± 0.19.

As for C19R, the abundance fitness is -0.886 ± 0.11.

Turning to C19V, the abundance fitness was -0.43 ± 0.074.

With C19Y, the abundance fitness is -0.712 ± 0.14.

On to C19L, for which the abundance fitness was -0.659 ± 0.099.

Turning to C19M, the abundance fitness is -0.761 ± 0.19.

On to C19E, for which the abundance fitness is -0.369 ± 0.11.

As to C19A, the abundance fitness is -0.836 ± 0.15.

For M13E, the abundance fitness is -0.327 ± 0.14.

As for M13C, the abundance fitness is -0.118 ± 0.12.

Take M13V: the abundance fitness is -0.002 ± 0.071.

M13P: the abundance fitness was -1 ± 0.49.

M13Q: the abundance fitness was -0.22 ± 0.085.

For M13F, the abundance fitness was -0.253 ± 0.15.

In the case of M13N, the abundance fitness is -0.24 ± 0.1.

Take M13W: the abundance fitness was -0.018 ± 0.074.

For the variant M13L, the abundance fitness was -0.078 ± 0.065.

For M13H, the abundance fitness is -0.283 ± 0.11.

M13Y: the abundance fitness is -0.112 ± 0.15.

In the case of M13R, the abundance fitness was -0.261 ± 0.051.

For the variant M13I, the abundance fitness is -0.148 ± 0.091.

As for M13G, the abundance fitness was -0.07 ± 0.052.

M13A: the abundance fitness was -0.085 ± 0.056.

Regarding M13D, the abundance fitness is -0.706 ± 0.22.

On to M13S, for which the abundance fitness is -0.441 ± 0.074.

In the case of L15M, the abundance fitness is -0.431 ± 0.18.

Turning to L15E, the abundance fitness is -0.89 ± 0.26.

On to L15F, for which the abundance fitness is -0.134 ± 0.18.

With L15N, the abundance fitness is -0.6 ± 0.34.

As for L15C, the abundance fitness was -0.09 ± 0.081.

As for L15V, the abundance fitness stood at 0.037 ± 0.057.

For L15S, the abundance fitness is -0.832 ± 0.099.

As for L15T, the abundance fitness is -0.389 ± 0.14.

L15G: the abundance fitness was -1.03 ± 0.23.

For L15A, the abundance fitness was -0.477 ± 0.1.

As to L15D, the abundance fitness was -0.736 ± 0.33.
